# Test results reported in patent publication US6596526.
# Target: recombinant von Willebrand Factor precursor, P04275
row,Protein,processing of rvWF precursor (Western blot)
1,Furin deletion mutant 578-711 (protein) QKVFTNTWAVRIPGGPAVANSVARKHGFLNLGQIFGDYYHFWHRGVTKRSLSPHRPRHSRLQREPQVQWLEQQVAKRRTKRDVYQEPTDPKFPQQWYLSGVTQRDLNVKAAWAQGYTGHGIVVSILDDGIEKNHPDLAGNYDPGASFDVNDQDPDPQPRYTQMNDNRHGTRCAGEVAAVANNGVCGVGVAYNARIGGVRMLDGEVTDAVEARSLGLNPNHIHIYSASWGPEDDGKTVDGPARLAEEAFFRGVSQGRGGLGSIFVWASGNGGREHDSCNCDGYTNSIYTLSISSATQFGNVPWYSEACSSTLATTYSSGNQNEKQIVTTDLRQKCTESHTGTSASAPLAAGIIALTLEANKNLTWRDMQHLVVQTSKPAHLNANDWATNGVGRKVSHSYGYGLLDAGAMVALAQNWTTVAPQRKCIIDILTEPKDIGKRLEVRKTVTACLGEPNHITRLEHAQARLTLSYNRRGDLAIHLVSPMGTRSTLLAARPHDYSADGFNDWAFMTTHSWDEDPSGEWVLEIENTSEANNYGTLTKFTLVLYGTAPEGHLPEVVAGLSCAFIVLVFVTVFLVLQLRSGFSFRGVKVYTMDRGLISYKGLPPEAWQEECPSDSEEDEGRGERTAFIKDQSAL,"the R683A, Helix 10, Loop 10 and 578-711 furin constructs evidence proteolytic activity"
2,Furin deletion mutant Helix 10 (protein) QKVFTNTWAVRIPGGPAVANSVARKHGFLNLGQIFGDYYHFWHRGVTKRSLSPHRPRHSRLQREPQVQWLEQQVAKRRTKRDVYQEPTDPKFPQQWYLSGVTQRDLNVKAAWAQGYTGHGIVVSILDDGIEKNHPDLAGNYDPGASFDVNDQDPDPQPRYTQMNDNRHGTRCAGEVAAVANNGVCGVGVAYNARIGGVRMLDGEVTDAVEARSLGLNPNHIHIYSASWGPEDDGKTVDGPARLAEEAFFRGVSQGRGGLGSIFVWASGNGGREHDSCNCDGYTNSIYTLSISSATQFGNVPWYSEACSSTLATTYSSGNQNEKQIVTTDLRQKCTESHTGTSASAPLAAGIIALTLEANKNLTWRDMQHLVVQTSKPAHLNANDWATNGVGRKVSHSYGYGLLDAGAMVALAQNWTTVAPQRKCIIDILTEPKDIGKRLEVRKTVTACLGEPNHITRLEHAQARLTLSYNRRGDLAIHLVSPMGTRSTLLAARPHDYSADGFNDWAFMTTHSWDEDPSGEWVLEIENTSEANNYGTLTKFTLVLYGTAPEGAEMWHQAMEVHLPEVVAGLSCAFIVLVFVTVFLVLQLRSGFSFRGVKVYTMDRGLISYKGLPPEAWQEECPSDSEEDEGRGERTAFIKDQSAL,"the R683A, Helix 10, Loop 10 and 578-711 furin constructs evidence proteolytic activity"
3,Furin deletion mutant Loop 10 (protein) QKVFTNTWAVRIPGGPAVANSVARKHGFLNLGQIFGDYYHFWHRGVTKRSLSPHRPRHSRLQREPQVQWLEQQVAKRRTKRDVYQEPTDPKFPQQWYLSGVTQRDLNVKAAWAQGYTGHGIVVSILDDGIEKNHPDLAGNYDPGASFDVNDQDPDPQPRYTQMNDNRHGTRCAGEVAAVANNGVCGVGVAYNARIGGVRMLDGEVTDAVEARSLGLNPNHIHIYSASWGPEDDGKTVDGPARLAEEAFFRGVSQGRGGLGSIFVWASGNGGREHDSCNCDGYTNSIYTLSISSATQFGNVPWYSEACSSTLATTYSSGNQNEKQIVTTDLRQKCTESHTGTSASAPLAAGIIALTLEANKNLTWRDMQHLVVQTSKPAHLNANDWATNGVGRKVSHSYGYGLLDAGAMVALAQNWTTVAPQRKCIIDILTEPKDIGKRLEVRKTVTACLGEPNHITRLEHAQARLTLSYNRRGDLAIHLVSPMGTRSTLLAARPHDYSADGFNDWAFMTTHSWDEDPSGEWVLEIENTSEANNYGTLTKFTLVLYGTAPEGGSPNSQPYDGHLPEVVAGLSCAFIVLVFVTVFLVLQLRSGFSFRGVKVYTMDRGLISYKGLPPEAWQEECPSDSEEDEGRGERTAFIKDQSAL,"the R683A, Helix 10, Loop 10 and 578-711 furin constructs evidence proteolytic activity"
